Source: the DeepSol protein solubility set

Test: soluble on expression in E. coli; label from the status in PepcDB or PDB records
For “MASTPRIVIIGAGIVGTNLADELVTRGWNNITVLDQGPLNMPGGSTSHAPGLVFQTNPSKTMASFAKYTVEKLLSLTEDGVSCFNQVGGLEVATTETRLADLKRKLGYAAAWGIEGRLLSPAECQELYPLLDGENILGGLHVPSDGLASAARAVQLLIKRTESAGVTYRGSTTVTGIEQSGGRVTGVQTADGVIPADIVVSCAGFWGAKIGAMIGMAVPLLPLAHQYVKTTPVPAQQGRNDQPNGARLPILRHQDQDLYYREHGDRYGIGSYAHRPMPVDVDTLGAYAPETVSEHHMPSRLDFTLEDFLPAWEATKQLLPALADSEIEDGFNGIFSFTPDGGPLLGESKELDGFYVAEAVWVTHSAGVAKAMAELLTTGRSETDLGECDITRFEDVQLTPEYVSETSQQNFVEIYDVLHPLQPRLSPRNLRVSPFHARHKELGAFFLEAGGWERPYWFEANAALLKEMPAEWLPPARDAWSGMFSSPIAAAEAWKTRTAVAMYDMTPLKRLEVSGPGALKLLQELTTADLAKKPGAVTYTLLLDHAGGVRSDITVARLSEDTFQLGANGNIDTAYFERAARHQTQSGSATDWVQVRDTTGGTCCIGLWGPLARDLVSKVSDDDFTNDGLKYFRAKNVVIGGIPVTAMRLSYVGELGWELYTSADNGQRLWDALWQAGQPFGVIAAGRAAFSSLRLEKGYRSWGTDMTTEHDPFEAGLGFAVKMAKESFIGKGALEGRTEEASARRLRCLTIDDGRSIVLGKEPVFYKEQAVGYVTSAAYGYTVAKPIAYSYLPGTVSVGDSVDIEYFGRRITATVTEDPLYDPKMTRLRG”, the “soluble on expression in E. coli” value was “soluble”. In the case of “DIGCYTLGALPPFREQDSATNMGSSLGISNGVFRSTDQVPVAVIGDSTFFHSGIEGVANAVYNNTAEIIVVLDNRSTAMTGQQPSPSTAIDIGNVCRAMGIEYVETFDPFDVDAGEKAVQQAAEYVKKTLKPAVIIAKRACALEVLEKVDSETPKAYVDSNRCT”, the “soluble on expression in E. coli” value is reported as “not soluble”. For “MEDFFSIGQIINTHGVRGELKIYPLTDDINRFDDLDSVYVDNEIKKVISVKKQPNKLILKLEGIDTLDEAVKYKNKYIKVLREDAVELKEGQYFIKDIIGCNVFDENDKDLGEVYDVISTKNNDVYCIRKEGQQDILVPALKDIVLKIEIENKKIVIKAVEEWLESLEHHHHHH”, the “soluble on expression in E. coli” value was “soluble”. With “MAEEPYVFTLKKRNNDDAEDDWDRYSENVRPTRRGRKIDALKRNVEEVVTEETARLKLDQLLEELQNLECSEESEELQKILDFCSWFEEKLAIGFHKVYYELLWKIISRHGFLEKYKEDERMLKIWEKMADNSAGHAHDIYQFAISRKSLVKCAALYARWSQSVELAGAYVEARRVLILARTNCAVPIQIVNDAEDALEMREMRRHLQERDSDDDEEEEETRKAFTNLPVIGDNHTVPIVRLPSMCSDTTKKAMKFDTGNVERVNPVCKDNQMQPFEVLSYTDADDVEYLRNVHELHAHIERYAIKETTNPSITGSSTSEAAAVTIYPVSSSEFEVWTVEGSGPTKAKARMAIKRVFKDLSFEEYAASLLPNHPSMVRATAKKLDFDETL” the “soluble on expression in E. coli” value was “not soluble”. In the case of “MTASDSAADETGDLRHEAHAWVISLTSGRVTQGDARAFRQWCARSPQHLRAFVEARDLWQALGSAAALPLEPPAVAQIAPRRFGRRWFVGGALAASVALFVLRPSLLDHGLGGADYVTAVGEQRQVQVSGETRIEMNTRTRLNVRRNQEQQETIELLGGEAEIIASHPPQSSLRVMAGSAWLSASRARFNVRSSGDVCVVTCLEGSVRLEHLGQRLDLQAGQQLTFDERRNGPPVPFDVAEVMAWRERMLVFNDVPLATVIDEINRYRPGMLLLLDKALGRRRVQARFSLDQLADVATLIRDAYGIEVTRLPGGVVLLG”, the “soluble on expression in E. coli” value is reported as “not soluble”. For “MQVIRKPTRMLSGVTIVSIMTHPHSCPHGKCVFCPGGVDVDTPQSYYGREPTLMRAIENDYDPFHQVQSRLRQYVENGHTPSKVELIIMGGTFLSLPIDYQDWFVTYALEAMNRFPSYDKPSFVYLEDAQVKNEKAEVRCVGMTIETKPDWAKEWHADQMLRLGATKVELGVQTVYDDILKFTNRGHTVKDSIESTRILKDSGFKVVYHVMLGLPKSDPDKDLEAFKTIFSDPNFRPDMLKIYPTLVVETAPLANLWRRGLYKPYGTETLIELISEMYRYIPKWVRVMRIQRDIPANVILDGNKKGNLRELVEKKVLEKGIKINEIRFREVGMMWQHRGLLPDHTKIHLYKEVYEASEGTEIFLSFEDEKEILIGYLRLRITSNKAHRKEIDGKTAIVRELHVYGIEVPIGSWDELGFQHRGYGSKLLSEAEKIAREEFDMRKISVLSGIGAREYYAKRGYVKEGPYMSKQLI”, the “soluble on expression in E. coli” value was “not soluble”. In the case of “MAHHHHHHMDALIGQLENVEPDNILKSAEEFRNDKSDVKVNLSIGVCCDENGQLHIFKSVLEAEKLVQQRYKEKPYMLSNGTKQFSLLTQKLIFGENSKYLKEKKICTVQAIGGTGAICIALQLFKMLHIREICVTNKPYVNHVNMITSNGIKVKYISFFEEKLVNINYDAFLNDLRKLEDGSVLLLQVSCYNPCSTNIEEIYFDEIANIVWKKKHVIVFDIAYQGFGSSNMNDDVSLVKKFEERGISFVVCQSFSKNMSLYGERAGALHIVCKSKEERKIVANNLRVITRKFYSSPTIHTNRIVCQLLEDEKLKSEWISDLRELSERVHKNRVLFFEKMEFYQKKFDLHYDWSVYKKQRGIFSFVPMFSAIYRKLKEHHVYIIDNGRINVSGITARNVDYVAEKVCLSLAEVKRCG”, the “soluble on expression in E. coli” value is reported as “not soluble”. In the case of “MLEEIPSSVEADLMPNLDSNVSSDNGTSKRFRIQANAVEARSFFASLVKGTEYSVAIHPAVQGNITVNLSDVTLDEVLSVVQNMYGYDVMKSGKVIQVYPAGMRTVTIPVDYLQFKRSGRSLTSIVTGSVTSAGTSNSGGSSDSSDSSDSNNSNNGNDSSTTSTGGTRIETITESDFWPMLQQAVANLIGSGKGQSVVVTPQAGVITVRAFPDDIREVREFLGVSQERMQRQVILEAKILEVTLSDGYQQGINWSNLSASIGNSGSIIVNRPASALPPLDAIGTLLGGQTNVTISDGNFEAVLNFMSTQGDLNVLSSPRITAANNQKSVIKVGTDQYFVTELSSNAGNGENSNAVPEVELTPFFSGISLDVTPQIDNKGNVFLHVHPAVIEVTEEVKQLNLGGDFQNIQLPLAKSSIRESDSVIRAKDGDVVVIGGLMKQQNVEQVSKVPFLGDVPALGHLFRNTSNVTQKTELVILLKPTVVGVNSWQKELERSRDLLQEWFPDAQLEHHHHHH”, the “soluble on expression in E. coli” value is reported as “soluble”. In the case of “MGEVQREKVAVIIGPTAVGKTKLSIDLAKALNGEIISGDSMQIYRTMDIGTAKVTKAEMDGIPHYMIDIKNPEDSFSVAEFQERVRKHIREITERGKLPIIVGGTGLYIQSVLFDYQFTDDAGDVIYREQREKLALERGVEYVHEKLQEVDPESAERIHANNVRRVIRALEIFHTTGEKMSEQIEKQEKELLYDVSLIGLTMDREMLYDRINLRVDLMMEQGLLEEVEGLYNRGIRDCQSIQAIGYKEIYDYFENRASLEDAVSQLKTNSRRYAKRQLTWFRNKMDVTWFDVTDGEKTSEILRYIEGKLQVKSNNSKLEHHHHHH”, the “soluble on expression in E. coli” value is reported as “soluble”. With “MGHHHHHHSHMALAARLLPQFLHSRSLPCGAVRLRTPAVAEVRLPSATLCYFCRCRLGLGAALFPRSARALAASALPAQGSRWPVLSSPGLPAAFASFPACPQRSYSTEEKPQQHQKTKMIVLGFSNPINWVRTRIKAFLIWAYFDKEFSITEFSEGAKQAFAHVSKLLSQCKFDLLEELVAKEVLHALKEKVTSLPDNHKNALAANIDEIVFTSTGGISIYYDEKGRKFVNILMCFWYLTSANIPSETLRGASVFQVKLGNQNVETKQLLSASYEFQREFTQGVKPDWTIARIEHSKLLE” the “soluble on expression in E. coli” value was “not soluble”. With “MSLAQLEHALQHDLQRLAHGGEPWVRPRVHPAGHVYDVVIVGAGQSGLGAAFALQRERVHNVLVIDENPPGQEGPWVTYARMQTLRTPKQITSIDLGVPTLTFRAWWEAQHGAAGWDALDKIPRGTWMDYLRWYRAALRLPVRNATQLVRIEPDAAPGIHRLHLAMGAPLMARKIILATGIQGGGQWQVPEWITQALPAQRYAHTSGPIDYAALAGKRVGILGGGASAFDNACFALDQGVARAEVFVRRAALPRVNPIRHMEQAGIIPRFAALPDADKYRMMASFFGRNQPPTNDTFQRACAHAGFALHLDAPWLGVEEHNDVVVVRTPQGEHRFDFLAIATGLVTDPRLRPELAALSGRIACWADRYQAPPGQANPVLDAHPYLGPGFELLPRTPDDAAAVDGLFAFNYSALINHGLSAAALSGLKVALPRLARAVADQLFLDDRQAMVEAYLGYDQAEFVGQWPQPTQAVALEHHHHHH” the “soluble on expression in E. coli” value was “soluble”. With “MGSDKIHHHHHHMKAYYHLPGLFEFYELYKEFLPLYRKHREYFYDWCDIGSIYGAPADCIWGGGRVGFGEHDLKEVLKLMQEYGISARLTFSNSLLTKEHLPDKKCNELCRIFDIGRDNERSRGFGNGIIIYSDILLDYIKENYPDFYFVSSTTKVLTDFSEFKNELNREEFRYVVPDFRLNKSFDNLKALSQHQKEKVEFLCNECCWFGCTDRKKCYETVSRKNLGVDCPEHYCVAPDSGQGYLFSKAMENPGFIGVYDIKNTYLPMGFSNFKIEGRGLGSAMILEFLLYYMTKPQYQIHVREHIYLDNMLDLF” the “soluble on expression in E. coli” value was “not soluble”. With “MGSDKIHHHHHHMNVLIVSSSEGITLSLLRCLGLLNIKSHVISVWKSSGSSRFSRFCKNYISSFITESSQGAENIADVINDYCKQQKIDIIIPSGLLGTFLVALIKEKLSYSSVFPINDADKIYNLNNKWQFYHLLRQHNIPTPKTILIETPEQIKLLNLNFPVMVKPLDRGNGYGVKKIDSIVDLHGYISNASQINNLPILVQEYVFGYDILLNVLAENGKLIAWTINRRVPYFFEFFQDENILEIAHKIIDSCNYTGVANFDIRFDERSNSVKVIECNPRFWASFGASVSYGIDFVNLGILLAQGQKLPDNLKKEVTCTEPEKIPYPSPSQFLKGLLLAKYPFAAMKKISSDLAWQSILDPLPNIYEKIWNRLGIVNTHDGVMLNKLLSNSIRVKI” the “soluble on expression in E. coli” value was “not soluble”. In the case of “MGSDKIHHHHHHMSEKQQILDYIETNKYSYIEISHRIHERPELGNEEIFASRTLIDRLKEHDFEIETEIAGHATGFIATYDSGLDGPAIGFLAEYDALPGLGHACGHNIIGTASVLGAIGLKQVIDQIGGKVVVLGCPAEEGGENGSAKASYVKAGVIDQIDIALMIHPGNETYKTIDTLAVDVLDVKFYGKSAHASENADEALNALDAMISYFNGVAQLRQHIKKDQRVHGVILDGGKAANIIPDYTHARFYTRAMTRKELDILTEKVNQIARGAAIQTGCDYEFGPIQNGVNEFIKTPKLDDLFAKYAEEVGEAVIDDDFGYGSTDTGNVSHVVPTIHPHIKIGSRNLVGHTHRFREAAASVHGDEALIKGAKIMALMGLELITNQDVYQDIIEEHAHLKGNGK”, the “soluble on expression in E. coli” value is reported as “not soluble”. In the case of “MHHHHHHSSGVDLGTENLYFQSMCAAQMPPLAHIFRGTFVHSTWTCPMEVLRDHLLGVSDSGKIVFLEEASQQEKLAKEWCFKPCEIRELSHHEFFMPGLVDTHIHASQYSFAGSSIDLPLLEWLTKYTFPAEHRFQNIDFAEEVYTRVVRRTLKNGTTTACYFATIHTDSSLLLADITDKFGQRAFVGKVCMDLNDTFPEYKETTEESIKETERFVSEMLQKNYSRVKPIVTPRFSLSCSETLMGELGNIAKTRDLHIQSHISENRDEVEAVKNLYPSYKNYTSVYDKNNLLTNKTVMAHGCYLSAEELNVFHERGASIAHCPNSNLSLSSGFLNVLEVLKHEVKIGLGTDVAGGYSYSMLDAIRRAVMVSNILLINKVNEKSLTLKEVFRLATLGGSQALGLDGEIGNFEVGKEFDAILINPKASDSPIDLFYGDFFGDISEAVIQKFLYLGDDRNIEEVYVGGKQVVPFSSSV”, the “soluble on expression in E. coli” value is reported as “soluble”. For “IPRFGVKTEQEDVLAKELEDVNKWGLHVFRIAELSGNRPLTVIMHTIFQERDLLKTFKIPVDTLITYLMTLEDHYHADVAYHNNIHAADVVQSTHVLLSTPALEAVFTDLEILAAIFASAIHDVDHPGVSNQFLINTNSELALMYNDSSVLENHHLAVGFKLLQEENCDIFQNLTKKQRQSLRKMVIDIVLATDMSKHMNLLADLKTMVETKKVTSSGVLLLDNYSDRIQVLQNMVHCADLSNPTKPLQLYRQWTDRIMEEFFRQGDRERERGMEISPMCDKHNASVEKSQVGFIDYIVHPLWETWADLVHPDAQDILDTLEDNREWYQSTIPQSPSPAPDDPEEGRQGQTEKFQFELTLE”, the “soluble on expression in E. coli” value was “soluble”.
